According to paper PMC2132707:
Values joined by “and” are separate entries in the source; they are usually repeats but may differ in a detail not shown here. Equal entries are not always repeated.

Target: heavy chains (Iα and Iβ) of inner arm dynein I1 (Chlamydomonas reinhardtii (endogenous in axonemes)) (UniProt Q9SMH3)
Assay: quantitative densitometry of Coomassie blue-stained gels

Substance	most likely relative stoichiometry (relative to the HCs) (relative to the HCs)	relative stoichiometry (relative to the HCs) (relative to the HCs)
Chlamydomonas 8,000-M r LC (natural protein)	4 to 5.5	4 to 5.5
IC97 of inner arm dynein I1 (natural protein)	0.5 to 1	0.95 and 0.67 and 0.56
IC140 of inner arm dynein I1 (natural protein)	0.5 to 1	0.71 and 0.53 and 0.63
